In the nanobody polyreactivity screen of Harvey et al. (2022):

Assay: yeast display, Sf9 membrane polyspecificity reagent, FACS + sequencing; frameworks hold sequencing errors
Outline: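 Genes from sorted yeast were amplified by colony PCR, read by MiSeq 2 × 250 sequencing and filtered on CDR length. These cells carried a synthetic nanobody library in Saccharomyces cerevisiae BJ5465 and were sorted by FACS into low and high (top ~1%) gates on anti-HA and streptavidin fluorescence. Polyreactivity is labelled according to the gate of origin.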

## QVQLVESGGGLVQAGGSLRLSCAASGFTIYGYVMGWYRQAPGKVRELVAAISYSAGRTYYADSVKGRFTISRDNAKNTVYLQMNSLKPEDTAVYYCNAPSVGAAFDYCGQGTQVTVSS
  polyreactivity (PSR sort gate): high polyreactivity

## QVQLVESGGGLVQAGGSLRLSCAASGFTIYPYAMGWYRQAPGKERELVAAISQRGGRTSYADSVKGRFTISRDNAKNTVYLQMNSLKPEDTAVYYCAARFWATEGYWGQGTQVTVSS
  polyreactivity (PSR sort gate): high polyreactivity

## QVQLVESGGGLVQAGGSLRLSCAASGFTIYRYAMGWYRQAPGKERELVAAITSRGGSTYYADSVKGRFTISRDNAKNTVYLQMNSLKPEDTAVYYCAAAGYYPAYDYWGQGTQVTVSS
  polyreactivity (PSR sort gate): high polyreactivity

## QVQLVESGGGLVQAGGSLRLSCAASGFTLAFYGMGRSRQAPGKERELVAAISRSGGSTYYADSVKGRFTISRDNAKNTVYLQMNSLKPEDTAVYYCAAAFRAGDVYGYYWGQGTQVTVSS
  polyreactivity (PSR sort gate): high polyreactivity

## QVQLVESGGGLVQAGGSLRLSCAASGFTLARYAMGWYRQAPGKEREFVAAITNGGRTNYADSVKGRFTISRDNAKNTVYLQMNSLKPEDTAVYYCAARYRFGGIRRYNYWGQGTQVTVSS
  polyreactivity (PSR sort gate): high polyreactivity

## QVQLVESGGGLVQAGGSLRLSCAASGFTLAWNAMGWYRQAPGKERELVATISRSGSSTSYADSVKGRFTISRDTAKNTVYLQMNSLKPEDTAVYYCAADRYTVRMDYWGQGTQVTVSS
  polyreactivity (PSR sort gate): high polyreactivity

## QVQLVESGGGLVQAGGSLRLSCAASGFTLDKYAMGSNRQAPGTERELVAAINWSGGSTYYADSVKGRFTISRDNAKNTVYLQMNSLKPEDTAVYYCNAQAYRRRRYYYWGQGTQVTVSS
  polyreactivity (PSR sort gate): high polyreactivity

## QVQLVESGGGLVQAGGSLRLSCAASGFTLDVYVMGWYRPAPGKERELVAAIRDSDDDTSYADSVKGRFTISRDNAKNTVYLQMNSLKPEDTAVYYCAVDYPTQPWGYYLLMDYWGQGTQVTVSS
  polyreactivity (PSR sort gate): low polyreactivity

## QVQLVESGGGLVQAGGSLRLSCAASGFTLEDYTMGWYRQAPGKERELVARITSGGSTNYADSVKGRFTISRDNAKNTVYLQMKSLKPEDTAVYYCNARYAWINMDYWGQGTQVTVSS
  polyreactivity (PSR sort gate): low polyreactivity

## QVQLVESGGGLVQAGGSLRLSCAASGFTLFTNAMGWYRQAPGKERELLARISLGGSTKYADSVKGRFTISRDNAKNTVYVQMNSLKPEDTAVYYCATGYYGYRYGYWGQATQVTVSS
  polyreactivity (PSR sort gate): high polyreactivity

## QVQLVESGGGLVQAGGSLRLSCAASGFTLFVYTMGWYRQAPGKERELVAAISSGDSTYYADSVKGRFTISRDNAKNTVYLQMNSLKPEDTAVYYCAAEWSGEAAWQVGAEDDYWGQGTQVTVSS
  polyreactivity (PSR sort gate): low polyreactivity

## QVQLVESGGGLVQAGGSLRLSCAASGFTLFYNAMGWYRQAPGKERELVAAITARGGGTYYADSVKGRFTISRDNAKNTVYLQMNSLKPEDTAVYYCNAGQNQRVDRTDPYDYWGQGTQVTVSS
  polyreactivity (PSR sort gate): low polyreactivity

## QVQLVESGGGLVQAGGSLRLSCAASGFTLGFNAMGWYRQAPGKERELVAAITIGGTTYYADSVKGRFTISRDNAKNTVYLQMNSLKPEDTAVYYCAAARFLWFYVYTTRVQRYGYWGQGTQVTVSS
  polyreactivity (PSR sort gate): low polyreactivity

## QVQLVESGGGLVQAGGSLRLSCAASGFTLGGNAMGWYRQAPGKERELVAAITFSGGSTYYADSVKGRFTISRDNAKNIVYLQMNSLKPEDTAVYYCAKTHGYYYYYTYDYWGQGTQVTVSS
  polyreactivity (PSR sort gate): low polyreactivity

## QVQLVESGGGLVQAGGSLRLSCAASGFTLGWYAKGWYRQAPGKERELVASINWDGGSTYYADSVKVRFTISRDNAKNTVYLPMNSLKAEDTAVDYWAAPPGGGGGIGYDSWGQGTQVTVSS
  polyreactivity (PSR sort gate): high polyreactivity

## QVQLVESGGGLVQAGGSLRLSCAASGFTLGWYVMGWYRQAPGKERELVAGISWSGGNTYYADSVKGRFTISRDNAKNTVYLQMHSLKPEDTAVYYCNADRTYPDYDYWGQGTQVTVSS
  polyreactivity (PSR sort gate): low polyreactivity

## QVQLVESGGGLVQAGGSLRLSCAASGFTLGYYTMGWYRQAPGKERELVAAIRSNGGSTYYADSVKGRFTISRDNAKNTVYLQMNSLKPEDTAVYYCAADHAYFLTHSSYLFYYWGQGTQVTVSS
  polyreactivity (PSR sort gate): high polyreactivity

## QVQLVESGGGLVQAGGSLRLSCAASGFTLHSYAMGWYRQAPGKERELVAAITTGGSTYYADSVKGRFTISRDNAKNTVYLQMNSLKPEDTAVYYCAAEDPGPYGGYDYWGQGTQVTVSS
  polyreactivity (PSR sort gate): low polyreactivity

## QVQLVESGGGLVQAGGSLRLSCAASGFTLLGYAMGWYRQAPGKERELVAAISRGGNTYYADSVKGRFTISRDNAKNTVYLQMNSLKPEDTAVYNCAAQTYSTGYVTRFNYWGQGTQVTVSS
  polyreactivity (PSR sort gate): high polyreactivity

## QVQLVESGGGLVQAGGSLRLSCAASGFTLLPNALGWYRQAPGKERELVAAITASGGRTYYADSVKGRFSISRDNAKNTVYLLMKSLKPVDTAVYDCTAGVYYYTPYTRMDYWGQGTQVTVAS
  polyreactivity (PSR sort gate): low polyreactivity

## QVQLVESGGGLVQAGGSLRLSCAASGFTLLTYVMGWYIQAPGKERELVAAISKSGSRTYYADSVKGRFTISRDNAKNTVYLQMNSLKPEDTAVYYCAADTSAYRYDYWGQGTQVTVSS
  polyreactivity (PSR sort gate): high polyreactivity

## QVQLVESGGGLVQAGGSLRLSCAASGFTLLTYVMGWYRQAPGKERELVAAITSSGGRTYYADSVKGRFTISRDNAKNTVYLQMNSLKPEDTAVYYCAAVGWGSSYRARYGYWGQGTQVTVSS
  polyreactivity (PSR sort gate): high polyreactivity

## QVQLVESGGGLVQAGGSLRLSCAASGFTLPLYAMGWYRQAPGKERELVATISSGGTTYYADSVKGRFTISRDNAKNTVYLQMNSLKPEDTAVYYCNTLRQLGRPFYYWGQGTQVTVSS
  polyreactivity (PSR sort gate): high polyreactivity

## QVQLVESGGGLVQAGGSLRLSCAASGFTLQPYAMGWYRQAPGKERELVAAISSRGGRTYYADSVKGRFTISRDNAKNTVYLQMNSLKPEDTAVYYCAATGGYVYPRSRLYYYWGQGNQVTVSS
  polyreactivity (PSR sort gate): high polyreactivity

## QVQLVESGGGLVQAGGSLRLSCAASGFTLQQYTMGWYIQAPGKERELVAAISTSGVRTYYADSVKGRFTISRDNAKNTVYLQMNSLKPEDTAVYYCNAAWVYGIGWYSGYDYWGQGTQVTVSS
  polyreactivity (PSR sort gate): high polyreactivity

## QVQLVESGGGLVQAGGSLRLSCAASGFTLRGNAMGWYRQAPGKESELVAAISTGGSTYNADSVKGRFTISRDNAKITVYLQMNSLNPEDTAVYYCARRGWFHYRYYYWGQGSQVTVSS
  polyreactivity (PSR sort gate): high polyreactivity

## QVQLVESGGGLVQAGGSLRLSCAASGFTLRRNAMGWYRQAPGKERELVAAISSSGSTYYADSVKGRFTISRDNAKNTVYLQMNSLKPEDTAVYYCAASATYKVRGGYWGQGTQVTVSS
  polyreactivity (PSR sort gate): high polyreactivity

## QVQLVESGGGLVQAGGSLRLSCAASGFTLRSNAMGWYRQAPGKERELVASITDGTSTNYADSVKGRFTISRDNAKNTVYLQMNSLKPEDTAVYYCATRHPARRDYWGQGTQVTVSS
  polyreactivity (PSR sort gate): low polyreactivity

## QVQLVESGGGLVQAGGSLRLSCAASGFTLRVNAMGWYRQAPGKERELVAAISDSGTNTYYADSVKGRFTISRDNAKNTVYLQMNSLKPEDTAVYYCATAVYLVIFEYDYWGQGTQVTVSS
  polyreactivity (PSR sort gate): low polyreactivity

## QVQLVESGGGLVQAGGSLRLSCAASGFTLRVNDMGWYRQAPGKERELVAGITVSGGSTYYADSVKGRFTISRDNAKNTVYLQMNSLKPEDTAVYYCNADNYENATGMDYWGQGTQVTVSS
  polyreactivity (PSR sort gate): low polyreactivity

## QVQLVESGGGLVQAGGSLRLSCAASGFTLSGNAMGWYRQAPGKERELVAAINGSGGSTYYADSVKGRFTISRDNAKNTVYLQMNSLKPEDTAVYYCAAAGSYGQAYSIFTLDSWGPGTQVTVSS
  polyreactivity (PSR sort gate): low polyreactivity

## QVQLVESGGGLVQAGGSLRLSCAASGFTLSSYVMGWYRQAPGKERELVAAITSSGGSTYYADSVKGRFTISRDNAKNTVYLQMNSLKPEDTAVYYCNAVWWYKLYFDDDYWGQGTQVNVSS
  polyreactivity (PSR sort gate): high polyreactivity

## QVQLVESGGGLVQAGGSLRLSCAASGFTLTGNAMGWYRQAPGKERELVAAISRNGGSTFYADSVKGRFTISRDNAKNTVYLQMNSLKPEDTAVYYCNASRFRHSAYKYDSWGQGTQVTVSS
  polyreactivity (PSR sort gate): high polyreactivity

## QVQLVESGGGLVQAGGSLRLSCAASGFTLTLRYAMGLYRQAPGKERELVAAISSGGRTKYADSVKGRFTISRDNAKNTVYLQMNSRKPEDTAVYYCNAVTQREYEEGDYWGQGTQVTVSS
  polyreactivity (PSR sort gate): high polyreactivity

## QVQLVESGGGLVQAGGSLRLSCAASGFTLTRNAMGWYRQAPGKERELVAAISWSGGTTYYADSVKGRFTISRDNAKNTVYLQMNSLKPEDTADYYCNTASWRAQYYYWGQGTQVTVSS
  polyreactivity (PSR sort gate): high polyreactivity

## QVQLVESGGGLVQAGGSLRLSCAASGFTLVKYVMGWYRPAPGKERELVAAINRSGTSTYYADSVKGRFTISRDNAKNTVYLQMNSLKPEDTAVYYCAAERSRNFDWGQGTQVTVSS
  polyreactivity (PSR sort gate): high polyreactivity

## QVQLVESGGGLVQAGGSLRLSCAASGFTLYVNAKGWYRQAPGKERELVAAISWSGGSTYYADSVKGRFTISRDNAKNTVYLQMNSLKPEDTAVYYCNAKYHRRLQWGTRYYYWGQGTQVTVSS
  polyreactivity (PSR sort gate): high polyreactivity

## QVQLVESGGGLVQAGGSLRLSCAASGFTSGQYAMGWYRQAPGKERELVAAISWSGGSTYYADSVKGRFTISRDNAKNTVYLQMNSLKPEDTAVYYCAAGKTPQKYGGFNYWGQGTQVTVSS
  polyreactivity (PSR sort gate): high polyreactivity

## QVQLVESGGGLVQAGGSLRLSCAASGFTSNYYAMGGYRQAAGKERELVAAITTGGSTHYADSVQGRFTISRDNAKNTVYVQMNSLKPEDTAVYYCAADLKDTRLFPWFCEYDYWGQGTQVTVSS
  polyreactivity (PSR sort gate): low polyreactivity

## QVQLVESGGGLVQAGGSLRLSCAASGFTSRYYAMGWYRQAPGKERELVAAISSSGGRTYYADSVKGRFTISRDNAKNTVYLQMNSLKPEDTAVYYCNTGIHARYGGLYGYWGQGTQVTVSS
  polyreactivity (PSR sort gate): high polyreactivity

## QVQLVESGGGLVQAGGSLRLSCAASGFTTAYAMGWYRQAPGKERELVAAISSGGSTYYADSVKGRFTISRDNAKNTVYLQMNSLKPEDTAVYYCATGPYYGYDEFDYWGQGTQVTVSS
  polyreactivity (PSR sort gate): low polyreactivity

## QVQLVESGGGLVQAGGSLRLSCAASGFTTRSYAMGWYRQAPGKERELVAAISFSGGRTYYADSVKGRFTISRDNAKNTVYLQMNSLKPEDTAVYYCNARAYTRYSLLDYWGQGTQVTVSS
  polyreactivity (PSR sort gate): high polyreactivity

## QVQLVESGGGLVQAGGSLRLSCAASGFTVGYAMGWYRQAPGKERELVAAITRGGGTRTSYADSVKGRFTISRDNAKNTVYLQMNSLKPEDTAVYYCAARRWWSPRTQYDYWGQGTQVTVSS
  polyreactivity (PSR sort gate): high polyreactivity
